T1: AFP p26 (human, UniProt P02771 381-609)
T1 construct: The construct used is not described
T1 sequence: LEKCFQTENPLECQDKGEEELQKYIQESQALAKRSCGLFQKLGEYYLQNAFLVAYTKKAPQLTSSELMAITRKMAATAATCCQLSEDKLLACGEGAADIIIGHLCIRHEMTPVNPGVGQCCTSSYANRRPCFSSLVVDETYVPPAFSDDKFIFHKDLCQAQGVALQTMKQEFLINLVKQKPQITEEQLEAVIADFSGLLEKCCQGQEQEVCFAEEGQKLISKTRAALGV

B1: SEQ ID NO 816 (designed binder)
chain: MGSWGEFTVRLYAIDRRLDALGGSEAELAAFEKEIAAFESELQAYKGKGNPEVEELRRFAAIIRAFLQAYRHN
B2: SEQ ID NO 820 (designed binder)
chain: MGSWLYFKYNLAVIKHWLEALGGSEAELAIFEMSIADFEYELQWYKGKGNPEVEALRKEAAAIRDELQAYRHN
B3: SEQ ID NO 821 (designed binder)
chain: MGSWFYFKYELAWIKHWLEALGGSEAELASFETHIAFFEHQLQYYKGKGNPEVEALRKEAAAIRDELQAYRHN
B4: SEQ ID NO 812 (designed binder)
chain: MGSWFEFSNRLYAIWHRLTALGGSEAELAAFEKEIAAFESELQAYKGKGNPEVESLRTQAAFIRILLQAYRHN
B5: SEQ ID NO 814 (designed binder)
chain: B4 chain with S8E, N9D, Y12F, H16T, T19E, T58Q, Q59S, F62S, I65W
B6: SEQ ID NO 815 (designed binder)
chain: MGSWHEFSERLFAIWTRLEALGGSEAELAAFEKEIAAFESELQAYKGKGNPEVEALRQSAAFIRVMLQAYRHN
B7: SEQ ID NO 813 (designed binder)
chain: B4 chain with N9D, H16E, T19D, T58F, I65Y, L66Q
B8: SEQ ID NO 809 (designed binder)
chain: MGSWVEFYHRLDAIFDRLDALGGSEAELAAFEKEIAAFESELQAYKGKGNPEVEELRANAAGIRSWLQAYRHN
B9: SEQ ID NO 818 (designed binder)
chain: MGSWSIFKYHLADIKLLLEALGGSEAELAYFEFLIADFEFTLQDYKGKGNPEVEALRKEAAAIRDELQAYRHN
B10: SEQ ID NO 827 (designed binder)
chain: MGSWEHFKVELAGIKAYLEALGGSEAELALFEWAIADFESILQDYKGKGNPEVEALRKEAAAIRDELQAYRHN
B11: SEQ ID NO 828 (designed binder)
chain: B10 chain with E5I, H6Y, V9D, A16K, L30M, W33V, S40A, D44K
B12: SEQ ID NO 835 (designed binder)
chain: MGSWKLFKYELAWIKWRLEALGGSEAELADFEASIAQFEKYLQTYKGKGNPEVEALRKEAAAIRDELQAYRHN
B13: SEQ ID NO 836 (designed binder)
chain: B12 chain with K5Y, Y9N, A33M, S34V, Q37M, K40D, Y41H, T44E
B14: SEQ ID NO 790 (designed binder)
chain: MGSWAEFSDRLNAIDQRLWALGGSEAELAAFEKEIAAFESELQAYKGKGNPEVEILREHAAEIRKFLQAYRHN
B15: SEQ ID NO 810 (designed binder)
chain: MGSWSEFTDRLFAIEDRLLALGGSEAELAAFEKEIAAFESELQAYKGKGNPEVEDLRMHAASIRLWLQAYRHN
B16: SEQ ID NO 819 (designed binder)
chain: MGSWHHFKYFLADIKSILEALGGSEAELAIFEVQIAYFEDLLQSYKGKGNPEVEALRKEAAAIRDELQAYRHN
B17: SEQ ID NO 811 (designed binder)
chain: MGSWHEFYDRLYAIWDRLDALGGSEAELAAFEKEIAAFESELQAYKGKGNPEVEGLRNAAAVIRIFLQAYRHN
B18: SEQ ID NO 837 (designed binder)
chain: MGSWVYFKAHLAFIKWELEALGGSEAELANFESTIAEFEKYLQVYKGKGNPEVEALRKEAAAIRDELQAYRHN
B19: SEQ ID NO 826 (designed binder)
chain: MGSWSLFKHRLANIKVYLEALGGSEAELADFETFIAYFEKDLQEYKGKGNPEVEALRKEAAAIRDELQAYRHN
B20: SEQ ID NO 822 (designed binder)
chain: MGSWADFKWTLAYIKHRLEALGGSEAELAFFEMEIAYFEQSLQNYKGKGNPEVEALRKEAAAIRDELQAYRHN
B21: SEQ ID NO 796 (designed binder)
chain: MGSWFEFFERLAAIEDRLWALGGSEAELAAFEKEIAAFESELQAYKGKGNPEVESLRVHAAAIRAFLQAYRHN
B22: SEQ ID NO 791 (designed binder)
chain: B14 chain with A5M, S8N, D9H, N12Q, Q16G, I55M, E62A, K65A
B23: SEQ ID NO 808 (designed binder)
chain: B21 chain with F5V, F8Y, A12N, D16Y, W19E, V58E, A62Y, A65Q, F66W
B24: SEQ ID NO 797 (designed binder)
chain: B21 chain with F5I, F8K, E9Y, A12D, D16W, W19E, V58I, A65T, F66W
B25: SEQ ID NO 805 (designed binder)
chain: B15 chain with S5Y, T8Y, F12D, L19F, D55S, M58D, H59Q, S62Y, L65T
B26: SEQ ID NO 806 (designed binder)
chain: MGSWHEFWVRLEAIESRLFALGGSEAELAAFEKEIAAFESELQAYKGKGNPEVESLRVQAAHIRSWLQAYRHN
B27: SEQ ID NO 802 (designed binder)
chain: B8 chain with V5S, Y8V, F15E, D16V, D19F, A58Y, N59H, G62K
B28: SEQ ID NO 803 (designed binder)
chain: B26 chain with H5S, W8Y, V9Y, E12A, S55R, V58E, Q59H, S65R
B29: SEQ ID NO 804 (designed binder)
chain: B26 chain with H5Y, W8Y, V9L, E12S, S16D, S65T
B30: SEQ ID NO 798 (designed binder)
chain: B26 chain with H5Y, W8M, V9Y, E12D, S16Y, V58I, Q59H, H62M, S65E
B31: SEQ ID NO 800 (designed binder)
chain: B26 chain with H5Y, W8V, V9I, E12D, S16D, S55H, Q59H, S65V
B32: SEQ ID NO 807 (designed binder)
chain: B26 chain with H5V, W8Y, V9H, S16Q, F19M, V58E, H62A
B33: SEQ ID NO 799 (designed binder)
chain: B26 chain with H5V, W8V, V9T, S16D, S55H, V58A, Q59H, S65H
B34: SEQ ID NO 801 (designed binder)
chain: B26 chain with H5V, W8V, V9E, E12D, S16F, S55K, V58N, Q59H
B35: SEQ ID NO 817 (designed binder)
chain: MGSWYEFDHRLMAISFRLVALGGSEAELAAFEKEIAAFESELQAYKGKGNPEVETLRRRAANIRHLLQAYRHN
B36: SEQ ID NO 838 (designed binder)
chain: MGSWMYFKSHLAWIKWELEALGGSEAELAFFEDNIAQFEYWLQLYKGKGNPEVEALRKEAAAIRDELQAYRHN
B37: SEQ ID NO 823 (designed binder)
chain: MGSWAYFKGQLAYIKSGLEALGGSEAELAYFELRIAYFEHWLQNYKGKGNPEVEALRKEAAAIRDELQAYRHN
B38: SEQ ID NO 829 (designed binder)
chain: MGSWVLFKQELAWIKWLLEALGGSEAELAAFEEQIARFEHDLQKYKGKGNPEVEALRKEAAAIRDELQAYRHN
B39: SEQ ID NO 831 (designed binder)
chain: B12 chain with K5F, Y9S, D30Y, A33Y, S34Q, Q37E, K40F, Y41W, T44S
B40: SEQ ID NO 832 (designed binder)
chain: B12 chain with K5L, Y9S, R17Y, D30E, A33W, S34N, Q37E, Y41N, T44K
B41: SEQ ID NO 833 (designed binder)
chain: B12 chain with K5L, Y9S, E10D, D30E, A33E, Q37M, K40H, Y41W, T44E
B42: SEQ ID NO 834 (designed binder)
chain: MGSWLYFKSDLAWIKWRLEALGGSEAELADFEEAIAEFEQALQIYKGKGNPEVEALRKEAAAIRDELQAYRHN
B43: SEQ ID NO 830 (designed binder)
chain: B38 chain with L17Y, E33W, Q34E, R37A, H40Q, D41R, K44I
B44: SEQ ID NO 825 (designed binder)
chain: MGSWVLFKDYLADIKHYLEALGGSEAELANFEHLIANFEGDLQTYKGKGNPEVEALRKEAAAIRDELQAYRHN
B45: SEQ ID NO 824 (designed binder)
chain: MGSWENFKDTLAWIKEYLEALGGSEAELAGFEHRIAIFEHYLQYYKGKGNPEVEALRKEAAAIRDELQAYRHN

Residue numbers refer to the chain shown, from its start.

The record followed here is patent publication US20230125550A1 (ARCELLX, published 2023).

For this test, the target named is T1, AFP p26. Description: phage ELISA, A450 target/A450 IgG1-Fc. In short, it runs like this:
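Phage were rescued in 96-well format with VCSM13 helper phage from individual phagemid colonies picked from panning output. Plates were coated with 1.3 microg/ml goat anti-human IgG1-Fc antibody, then 5 nM recombinant human target or IgG1-Fc, then 50 microl phage diluted 5× in ELISA blocking buffer. Binding was detected with HRP-conjugated anti-M13 antibody at 450 nm. The ELISA ratio is target over IgG1-Fc absorbance, averaged across all screened wells holding that clone.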
B1 had an ELISA_avg of 8.54 ratio.
In turn, B2 displayed an ELISA_avg of 13.3 ratio.
To B3 belongs 13.7 ratio; to B4, 15.2 ratio.
With B5, the ELISA_avg came to 10.9 ratio.
B6 gave an ELISA_avg of 8.21 ratio.
B7 gave an ELISA_avg of 19 ratio.
The same measure for B8: 20 ratio; for B9: 20.2 ratio.
To B10 belongs 18.1 ratio; to B11, 15.9 ratio.
The same measure for B12: 23.4 ratio.
B13 returned an ELISA_avg of 31.1 ratio.
In turn, B14 yielded an ELISA_avg of 25.3 ratio.
B15 registered an ELISA_avg of 25.4 ratio.
To B16 belongs 8 ratio; to B17, 22.9 ratio.
The same measure for B18: 20.8 ratio; for B19: 19.6 ratio; for B20: 31.5 ratio.
For B21, the ELISA_avg was determined as 20.3 ratio.
The same measure for B22: 33.4 ratio.
Molecule B23 returned an ELISA_avg of 28.7 ratio.
In the case of B24, the ELISA_avg is 18.3 ratio.
Molecule B25 came in with an ELISA_avg of 31.9 ratio.
Regarding B26, the ELISA_avg was 26.9 ratio.
As to B27, the ELISA_avg is 16.9 ratio.
The same measure for B28: 30.8 ratio; for B29: 27.4 ratio.
In the case of B30, the ELISA_avg worked out at 19.4 ratio.
In turn, B31 returned an ELISA_avg of 30.1 ratio.
The same measure for B32: 28.5 ratio.
To B33 belongs 11.7 ratio; to B34, 23.8 ratio; to B35, 20.1 ratio.
Consider B36, for which the ELISA_avg was determined as 19.8 ratio.
The same measure for B37: 11.4 ratio; for B38: 29.5 ratio; for B39: 25.8 ratio.
To B40 belongs 25.7 ratio.
The same measure for B41: 33.3 ratio.
B42 came in with an ELISA_avg of 21.2 ratio.
B43: the ELISA_avg was found to be 22.5 ratio.
Consider B44, for which the ELISA_avg was determined as 13.8 ratio.
B45: the ELISA_avg is 19.2 ratio.
